The record followed here is patent US20060127407A1 (IMMUNOGEN, published 2006).

The term Kd denotes the concentration at which binding is half-saturated. The low end stands for a tighter complex, the high end for a looser complex. For orientation: EC50 means the concentration giving half of the maximal effect. Low values mean a more potent agent, high ones a less potent agent.

Assay [1] addresses T1, alphaVbeta3 integrin (human, UniProt P06756 31-1048; P05106 27-788).
T1 construct: Purified integrin coated on plates; also called αvβ3; αVβ3
Description: saturation binding curve on αvβ3 coated plates.

Assay [2] deals with T2, alphaVbeta5 integrin (UniProt P06756 31-1048; P18084 24-799).
T2 construct: Purified integrin coated on plates; also called αvβ5; alphaVbetaS protein
Description: saturation binding curve, 125-I CNTO 95 on αvβ5 coated plates. As to the method:
(§1) A375S2 and M21 cells express both αvβ₃ and αᵥβ₅, HT-29 cells express αvβ5. For comparison, other Mabs capable of binding integrins were used. The Kd was calculated from a saturation binding curve in each case using multiple replicates of multiple lots of antibody.

Assay [3] addresses T3, alphaV subunit integrins on human tumor cells (HT29, A549, A2780) (human, UniProt P06756 31-1048).
T3 construct: whole, on cells; the cell line of each number is named under assay; also called alphaV integrins on living cells
Description: flow cytometry on HT29 human colon carcinoma cells, FITC anti-human antibody. As to the method: (§2) Cells: HT29 human colon carcinoma and A549 human lung carcinoma cells were from ATCC and maintained in alphaMEM supplemented with 10% fetal bovine serum (FBS). A2780 human ovarian carcinoma cells were obtained from National Cancer Institute. A2780 cells were cultured in RPMI 1640 medium containing 10% FBS. […] Absence of primary antibody or substitution of primary antibody with isotype matched antibody served as negative controls. Cells were immediately analyzed with a FACS Scan II flow cytometer (Becton Dickinson, Mountain View, Calif.). Data was analyzed with GraphPad Prism software using non-liner regression to determine the concentration at 50% maximal binding (Table 7).
For orientation: Flow cytometry measures light scatter and fluorescence of single cells or particles in a stream.

Assay [4] deals with T2, alphaVbeta5 integrin. Description: ELISA on alphaVbeta5 protein, absorbance against concentration.
For assay [5], the target named is T1, alphaVbeta3 integrin. Description: saturation binding curve, 125-I CNTO 95 on αvβ3 coated plates. As to the method: as §1
For assay [6], the target named is T3, alphaV subunit integrins on human tumor …. Description: flow cytometry on A549 human lung carcinoma cells, FITC anti-human antibody. As to the method:
as §2

For assay [7] the target is unchanged. Description: flow cytometry on A2780 human ovarian carcinoma cells, FITC anti-human antibody. As to the method: as §2
In assay [8] the target is T1, alphaVbeta3 integrin. Description: ELISA on alphaVbeta3 protein, absorbance against concentration. (In general: An ELISA detects its analyte on a solid surface through an enzyme-linked reagent.)
Assay [9] concerns the target T1, alphaVbeta3 integrin. Description: ELISA, purified antibody on alphaVbeta3.

T3 sequence (P06756 31-1048): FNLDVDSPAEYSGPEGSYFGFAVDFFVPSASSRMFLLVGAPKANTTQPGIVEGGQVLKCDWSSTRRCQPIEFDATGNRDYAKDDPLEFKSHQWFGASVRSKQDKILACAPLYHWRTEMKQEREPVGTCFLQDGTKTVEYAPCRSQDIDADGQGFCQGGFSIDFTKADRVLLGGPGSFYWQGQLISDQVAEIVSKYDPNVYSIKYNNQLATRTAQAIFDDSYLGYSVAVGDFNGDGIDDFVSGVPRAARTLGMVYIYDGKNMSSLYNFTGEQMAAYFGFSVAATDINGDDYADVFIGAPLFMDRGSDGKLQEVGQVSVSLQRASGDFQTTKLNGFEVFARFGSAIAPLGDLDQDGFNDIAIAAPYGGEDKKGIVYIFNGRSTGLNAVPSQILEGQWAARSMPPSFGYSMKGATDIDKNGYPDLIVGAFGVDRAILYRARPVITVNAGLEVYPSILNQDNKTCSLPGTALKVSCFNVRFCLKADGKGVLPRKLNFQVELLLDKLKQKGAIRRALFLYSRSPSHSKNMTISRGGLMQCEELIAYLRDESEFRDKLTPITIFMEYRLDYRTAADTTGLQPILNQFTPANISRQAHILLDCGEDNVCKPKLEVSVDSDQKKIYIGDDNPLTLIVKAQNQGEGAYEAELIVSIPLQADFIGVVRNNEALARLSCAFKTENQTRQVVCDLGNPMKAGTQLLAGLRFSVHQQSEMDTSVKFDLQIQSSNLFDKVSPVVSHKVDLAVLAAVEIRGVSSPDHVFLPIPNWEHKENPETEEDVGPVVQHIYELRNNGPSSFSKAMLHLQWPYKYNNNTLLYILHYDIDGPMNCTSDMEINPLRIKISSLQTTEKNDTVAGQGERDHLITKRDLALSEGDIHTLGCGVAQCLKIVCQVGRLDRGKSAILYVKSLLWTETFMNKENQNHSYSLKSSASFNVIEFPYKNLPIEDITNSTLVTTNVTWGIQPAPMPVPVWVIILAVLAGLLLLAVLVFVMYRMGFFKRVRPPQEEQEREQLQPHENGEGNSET
T2 sequence (P06756 31-1048, chain 1 of 2): as the sequence (P06756 31-1048) above
T2 sequence (P18084 24-799, chain 2 of 2): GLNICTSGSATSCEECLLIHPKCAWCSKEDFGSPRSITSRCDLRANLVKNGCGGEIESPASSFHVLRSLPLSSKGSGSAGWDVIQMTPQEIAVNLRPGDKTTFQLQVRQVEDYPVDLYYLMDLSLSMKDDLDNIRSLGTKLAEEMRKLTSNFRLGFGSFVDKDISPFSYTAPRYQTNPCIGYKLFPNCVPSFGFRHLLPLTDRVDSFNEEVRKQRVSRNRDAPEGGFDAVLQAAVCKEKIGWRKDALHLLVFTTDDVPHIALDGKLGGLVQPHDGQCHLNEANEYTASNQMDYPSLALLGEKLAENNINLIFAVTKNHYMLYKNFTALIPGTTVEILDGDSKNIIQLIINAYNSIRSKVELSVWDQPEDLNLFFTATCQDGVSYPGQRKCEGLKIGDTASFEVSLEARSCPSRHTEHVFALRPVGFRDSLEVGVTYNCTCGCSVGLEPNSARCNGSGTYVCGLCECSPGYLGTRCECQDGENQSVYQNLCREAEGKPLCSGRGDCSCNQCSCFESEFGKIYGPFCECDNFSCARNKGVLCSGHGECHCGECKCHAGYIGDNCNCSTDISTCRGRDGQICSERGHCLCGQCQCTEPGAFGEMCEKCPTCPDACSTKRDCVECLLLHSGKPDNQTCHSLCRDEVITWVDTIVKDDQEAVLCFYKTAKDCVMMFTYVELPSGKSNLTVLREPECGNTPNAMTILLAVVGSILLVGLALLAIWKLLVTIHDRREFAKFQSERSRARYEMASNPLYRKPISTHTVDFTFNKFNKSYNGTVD
T1 sequence (P06756 31-1048, chain 1 of 2): as the sequence (P06756 31-1048) above
T1 sequence (P05106 27-788, chain 2 of 2): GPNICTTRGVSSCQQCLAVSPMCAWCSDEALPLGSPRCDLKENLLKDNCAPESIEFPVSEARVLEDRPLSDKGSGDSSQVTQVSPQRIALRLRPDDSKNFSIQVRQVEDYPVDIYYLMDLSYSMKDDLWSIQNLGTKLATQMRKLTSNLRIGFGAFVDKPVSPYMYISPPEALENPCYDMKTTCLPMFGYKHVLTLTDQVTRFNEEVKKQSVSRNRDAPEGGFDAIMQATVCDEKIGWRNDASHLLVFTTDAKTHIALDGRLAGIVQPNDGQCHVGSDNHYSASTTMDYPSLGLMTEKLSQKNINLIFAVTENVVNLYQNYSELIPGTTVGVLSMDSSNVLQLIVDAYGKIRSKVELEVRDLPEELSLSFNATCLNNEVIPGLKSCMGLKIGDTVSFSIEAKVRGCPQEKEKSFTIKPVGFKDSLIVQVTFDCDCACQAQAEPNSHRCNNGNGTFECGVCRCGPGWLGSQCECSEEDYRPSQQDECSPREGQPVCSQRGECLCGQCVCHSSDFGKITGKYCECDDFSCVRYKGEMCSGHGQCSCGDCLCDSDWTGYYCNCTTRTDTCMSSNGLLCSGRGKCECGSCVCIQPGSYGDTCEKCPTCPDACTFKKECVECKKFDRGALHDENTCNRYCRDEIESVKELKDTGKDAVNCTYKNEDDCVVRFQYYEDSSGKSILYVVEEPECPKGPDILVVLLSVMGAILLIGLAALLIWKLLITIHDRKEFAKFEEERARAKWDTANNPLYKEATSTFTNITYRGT

B1: abciximab (Fab, V domains shown)
VH: EVQLQQSGTVLARPGASVKMSCEASGYTFTNYWMHWVKQRPGQGLEWIGAIYPGNSDTSYIQKFKGKAKLTAVTSTTSVYMELSSLTNEDSAVYYCTLYDGYYVFAYWGQGTLVTVSA
VL: EIVLTQSPVTLSVTPGDSVSLSCRASRDISNNLHWFQQTSHESPRLLIKYASQSMSGIPSRFSGSGSGTDFTLSINSVETEDFGMYFCQQTNSWPYTFGGGTKLEIK
B1: binding with alphaVbeta3 integrin [1] was put at a Kd of 0.25 nM.

B2: Monoclonal antibody CNTO 95 (antibody, IgG1, V domains shown)
VH: QVQLVESGGGVVQPGRSRRLSCAASGFTFSRYTMHWVRQAPGKGLEWVAVISFDGSNKYYVDSVKGRFTISRDNSENTLYLQVNILRAEDTAVYYCAREARGSYAFDIWGQGTMVTVSS
VL: EIVLTQSPATLSLSPGERATLSCRASQSVSSYLAWYQQKPGQAPRLLIYDASNRATGIPARFSGSGSGTDFTLTISSLEPEDFAVYYCQQRSNWPPFTFGPGTKVDIK
notes: also called C371A; Mab CNTO 95
Regarding B2, the Kd in the assay with alphaVbeta5 integrin [2] is 0.025 nM; with alphaVbeta5 integrin [4], 0.03 nM; with alphaVbeta3 integrin [5], 0.21 nM; with alphaVbeta3 integrin [8], ~3 nM. Besides, the EC50 was 140 µg/mL in assay [3], 180 µg/mL in assay [6], 170 µg/mL in assay [7] and 0.7 µg/mL in the assay with alphaVbeta3 integrin [9].

B3: CNTO 364 (CNTO 95-SPP-DM1) (antibody, human IgG1, V domains shown)
VH: B2 VH
VL: B2 VL
modifications: maytansinoid DM1 linked through SPP (disulfide) to amino acid side chains, positions not given
notes: Antibody-drug conjugate of CNTO 95 (human IgG1 kappa); also called CNTO 95-DM1; the conjugate
Turning to B3, the EC50 in [3] is 190 µg/mL; in assay [6], 270 µg/mL; in [7], 270 µg/mL. In addition, the Kd was 0.035 nM in the assay with alphaVbeta5 integrin [4] and ~3 nM in the assay with alphaVbeta3 integrin [8].
